# Measurements reported in patent publication US20130171179A1 (OREGON HEALTH AND SCIENCE UNIVERSITY, published 2013).
# Primed or numbered codes have the meaning given here. Ends that are not written are not given here. FITC′ = fluorescein isothiocyanate label
# T1: recombinant IAg7 (rIAg7; RTL450), single polypeptide comprising the β1 and α1 domains of the MHC class II … (mouse)
# T1 construct: no peptide attached; Internal C17-C79 disulfide bond; also called empty rIAg7; rIA7
# T1 chain: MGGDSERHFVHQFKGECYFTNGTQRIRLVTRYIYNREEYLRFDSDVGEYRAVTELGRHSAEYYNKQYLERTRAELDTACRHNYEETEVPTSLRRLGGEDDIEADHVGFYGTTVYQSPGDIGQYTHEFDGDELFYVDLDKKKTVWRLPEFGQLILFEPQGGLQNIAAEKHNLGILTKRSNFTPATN
# T2: recombinant human DR2 (β1α1 RTL) (human)
# T2 construct: Single-chain two-domain MHC class II polypeptide, with no peptide attached before loading; also called rDR2; DR2 RTL
# T2 chain: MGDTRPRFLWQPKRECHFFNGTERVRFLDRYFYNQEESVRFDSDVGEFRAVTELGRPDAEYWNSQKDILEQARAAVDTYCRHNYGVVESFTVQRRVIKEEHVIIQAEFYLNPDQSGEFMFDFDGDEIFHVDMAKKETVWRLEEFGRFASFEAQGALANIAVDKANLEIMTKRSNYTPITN
# T3: recombinant murine I-A^b (β1α1 RTL) (mouse)
# T3 construct: Single-chain two-domain MHC class II polypeptide, with no peptide attached before loading; also called rI-A^b RTL; rIAb
# T3 chain: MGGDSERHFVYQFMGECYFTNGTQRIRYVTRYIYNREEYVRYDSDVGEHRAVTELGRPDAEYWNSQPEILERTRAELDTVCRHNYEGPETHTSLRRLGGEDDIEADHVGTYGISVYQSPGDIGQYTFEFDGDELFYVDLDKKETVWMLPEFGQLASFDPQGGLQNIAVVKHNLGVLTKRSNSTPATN
# B1: FITC-labeled 8-mer insulin B:16-23 peptide (peptide)
# peptide: {FITC′}-YLVCGERG
# notes: The C-terminal 8 amino acids of B:9-23
# B2: MOG35-55 P43C variant (peptide)
# peptide: MEVGWYRSCFSRVVHLYRNGK
# notes: also called hMOG35-55 P43C variant
# B3: MOG35-55 S42C variant (peptide)
# peptide: MEVGWYRCPFSRVVHLYRNGK
# notes: also called hMOG35-55 S42C variant
# B4: FITC-labeled insulin B:9-23 C20 variant (cysteine moved to position 20) (peptide)
# peptide: {FITC′}-SHLVEALYLVACERG
# B5: S45C mutated mouse MOG35-55 (peptide)
# peptide: MEVGWYRPPFCRVVHLYRNGK
# notes: also called mMOG35-55 S45C variant; mouse MOG35-55 S45C variant
# B6: FITC-labeled insulin B:9-23 peptide, wild-type sequence (C19) (peptide)
# peptide: {FITC′}-SHLVEALYLVCGERG
# notes: also called Wild-type insulin B:9-23 peptide (C19); amino-terminal FITC-coupled B:9-23
# B7: insulin B:9-23 peptide (peptide)
# peptide: SHLVEALYLVCGERG
# notes: Synthetic peptide; also called Insulin B:9-23 (WT); InsB:9-23
# B8: FITC-labeled insulin B:9-23 C18 variant (cysteine moved to position 18) (peptide)
# peptide: {FITC′}-SHLVEALYLCAGERG
# Columns and labels:
# [1] = molecular target: T1, recombinant IAg7 (rIAg7; RTL450), …; assay: disulfide capture of amino-terminal truncated peptides, SDS-PAGE
# Description: (§1) A mixture of 10:1 peptide:rIAg7 at 200 μg/ml, 100 mM NaPO₄ pH 6.5; 150 mM NaCl; 0.05% SDS; and 0.01% NaN₃ was produced. After inspecting the mixture for any precipitation, reactions were incubated at 37° C. for 60 hours. Analysis of ability of redox capture conditions to facilitate peptide capture by MHC was performed as follows: 20 μl aliquots at various time points were mixed with an equal volume of 2× electrophoresis sample buffer (1% glycerol, 500 mM Tris, 0.2% SDS, and bromophenol blue at pH 8.0). Samples were then placed on ice for 30 minutes, heated at 90° C. for 6 minutes with or without β-mercaptoethanol and separated by 10-20% SDS-PAGE followed by Coomassie Blue staining to visualize the proteins. Proteins were quantified by densitometry scanning using Molecular Imager FX 5 and Quantity One software (Bio-Rad, Hercules, Calif.).
# Coomassie stained bands (29 kD and 31 kD, as indicated) were quantified to determine an initial rate of capture (FIG. 3). Insulin B:16-23 peptide (FITC-[…]; SEQ ID NO: 1) and rIAg7 were mixed (10:1, peptide:rIAg7) in 100 mM NaPO₄, pH 6.5, 150 mM NaCl, 0.05% SDS, and 0.01% NaN₃ and allowed to incubate for the indicated time.
# [2] = molecular target: T2, recombinant human DR2 (β1α1 RTL); assay: disulfide capture, SDS-PAGE
# [3] = molecular target: T1, recombinant IAg7 (rIAg7; RTL450), …; assay: disulfide capture of FITC-labeled peptides, SDS-PAGE
# [4] = molecular target: T3, recombinant murine I-A^b (β1α1 RTL); assay: disulfide capture, SDS-PAGE
# [5] = molecular target: T1, recombinant IAg7 (rIAg7; RTL450), …; assay: disulfide capture, Coomassie stained SDS-PAGE
# Description: as §1
# A recombinant form of IAg7 (rIAg7) comprising the β1 and α1 domains of the MHC class II molecule expressed as a single polypeptide (rIAg7; RTL450-series) was designed. IAg7-derived constructs are readily produced in E. coli, are well-behaved in aqueous buffers, and bind antigenic peptides. All MHC class II β1 domains comprise a disulfide bond between cysteine 17 and cysteine 79. Insulin B:9-23 is an antigenic peptide that binds IAg7 and comprises a cysteine residue at position 19. […]
binder,measurement,setting,value
B1,binding result,[1],binds
B2,binding result,[2],binds
B3,binding result,[2],binds
B4,binding result,[3],binds
B5,binding result,[4],binds
B6,binding result,[3],binds
B7,binding result,[5],binds
B8,binding result,[3],binds
